# Data from the supplement of paper PMC10724198.
# ± gives the standard deviation of the averaged measurements.
# Tested on: Saccharomyces cerevisiae
# Assay: protein stability index of tFT-peptide fusion (C-terminal peptide) (PSI (0-1 scale)); higher = more stable (slower turnover)
# Settings: genetic background: wild type; temperature: 30 C
# Description: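 Multiplexed protein stability (MPS) profiling in S. cerevisiae. Random 12-aa peptides (tFT-X12 library) are fused to the C-terminus of a sfGFP-mCherry tandem fluorescent timer, after mCherry and a GGGS linker. Cells are FACS-sorted into 8 mCherry/sfGFP bins and deep-sequenced. The protein stability index (PSI) is the read-weighted bin average, scaled from 0 (unstable) to 1 (stable). Only peptides with >10 reads are reported; cells were grown at 30 °C in SC-His with glucose.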
# 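Further: PSI is a weighted mean of sequencing reads over stability bins, variants kept only with over 10 reads, mCherry proximal and sfGFP distal, peptide attached via GGGS linker.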
row,Sequence,protein stability index
1,ARRIEGADAERG,0.668 ± 0.048
2,ARRVILRANGRI,0.668 ± 0.035
3,ARSALFRCGSIA,0.678 ± 0.02
4,ARTILGSFILHP,0.662 ± 0.049
5,ARYTGPTRIRAE,0.672 ± 0.1
6,ASAWHGLVFPPF,0.779 ± 0.01
7,ASCQRCGSVLDL,0.697 ± 0.014
8,ASDMHRTNKPRE,0.671 ± 0.085
9,ASFWLPSNLLPI,0.7322 ± 0.0013
10,ASGGWGVGCPGV,0.716 ± 0.041
11,ASGKRSGPNPCR,0.72 ± 0.022
12,ASGWWGGAVGLR,0.68375 ± 0.00064
13,ASKKIDIEKRGT,0.705 ± 0.14
14,ASLPDHYPGPKI,0.759 ± 0.27
15,ASPRLPSPLSLT,0.718 ± 0.12
16,ASRRASLSLRGP,0.73 ± 0.022
17,ASRRSRLPWLLL,0.629 ± 0.0083
18,ASRSRFMREQMV,0.567 ± 0.027
19,ASRWGYSATTVG,0.697 ± 0.026
20,ASYVFVVEGGGG,0.609 ± 0.018
21,ATDAWNKNKESS,0.542 ± 0.04
22,ATHPGCATPDAH,0.704 ± 0.015
23,ATPAPRGEVLVP,0.6369 ± 0.0034
24,ATPGALVSHPTL,0.729 ± 0.049
25,ATPPHLLPAPLA,0.656 ± 0.011
26,ATSYRPPHFAIP,0.693 ± 0.011

row,Sequence,protein stability index
1,ATVARNTDTSSP,0.679 ± 0.017
2,ATVYFCKVCGGR,0.687 ± 0.019
3,AVDPGASFPVSV,0.698 ± 0.0086
4,AVGFFAASVPGF,0.7293 ± 0.0069
5,AVGMGCLSFFVV,0.553 ± 0.056
6,AVGMVLEYFTLG,0.671 ± 0.029
7,AVRCEEKGLLLS,0.674 ± 0.017
8,AVRVSRFSCGGW,0.717 ± 0.038
9,AVSCTAWVTALG,0.522 ± 0.012
10,AVSSGPGSCSNP,0.668 ± 0.013
11,AVVRGRADCVMV,0.656 ± 0.017
12,AVVTVVDRVVRE,0.594 ± 0.032
13,AVVYRGGRGGIS,0.775 ± 0.047
14,AVWLGVGGRFVG,0.781 ± 0.053
15,AVWLVVRGVRGR,0.679 ± 0.034
16,AVYWRRIRRGRA,0.6714 ± 0.0018
17,AWDGVESGRGLE,0.67797 ± 0.00016
18,AWFCLGGRRGMV,0.685 ± 0.023
19,AWGFHDAFGLGC,0.605 ± 0.032
20,AWGGGSVVFWAV,0.692 ± 0.055
21,AWGGRVGWPKRR,0.734 ± 0.052
22,AWGPGCVVRGRE,0.7151 ± 0.0012
23,AWVCRLDGPVGG,0.634 ± 0.04
24,AWVLVVLGSSHR,0.586 ± 0.05
25,AWVVVGEGKGWR,0.717 ± 0.035
26,AWWWGCSSIGYW,0.787 ± 0.085

row,Sequence,protein stability index
1,AYCGGSNKCTTE,0.732 ± 0.026
2,AYCGLEGFLGLG,0.688 ± 0.051
3,AYLGFYLLPYSS,0.717 ± 0.13
4,AYRKQGRGERKG,0.65 ± 0.011
5,AYRLWQTESKFD,0.699 ± 0.057
6,CAGSRIYCVSLS,0.641 ± 0.062
7,CASGKVCVRFCW,0.683 ± 0.033
8,CAVPTCSRVPIV,0.601 ± 0.078
9,CCAVLSSMSSFD,0.668 ± 0.053
10,CCFFPSLRSPSF,0.726 ± 0.011
11,CCLSISSSLLDL,0.675 ± 0.13
12,CCLSVSSHLPHS,0.7096 ± 0.00068
13,CCPHMLLVLTNI,0.509 ± 0.011
14,CCRDLWVWLVKW,0.619 ± 0.071
15,CCSLIPRAPSGR,0.687 ± 0.051
16,CDWQMMKVQERS,0.698 ± 0.021
17,CECRCECGIGDK,0.632 ± 0.096
18,CEYRRLVISVFD,0.547 ± 0.028
19,CFAPRAPIRRFF,0.733 ± 0.032
20,CFCSLLSPSLFL,0.751 ± 0.091
21,CFEGPSSRRYFV,0.699 ± 0.083
22,CFGSRMGVVGFC,0.726 ± 0.065
23,CFGVSVYIGLGV,0.588 ± 0.011
24,CFGYRGAPFCGQ,0.669 ± 0.063
25,CFKPLRLEPGCC,0.665 ± 0.094
26,CFLCLAYGFFSF,0.571 ± 0.03

row,Sequence,protein stability index
1,CFLVLFAHPFVL,0.555 ± 0.007
2,CFPLSPSCIFLR,0.464 ± 0.077
3,CFSRCLSLLSSS,0.636 ± 0.021
4,CGAALCSWEVVV,0.627 ± 0.018
5,CGCVAVNSFPVL,0.69 ± 0.011
6,CGGGGVVGAGWG,0.728 ± 0.061
7,CGGSARAGVVFL,0.699 ± 0.066
8,CGGWTRRSGDMV,0.678 ± 0.042
9,CGHAGQTPRTSR,0.718 ± 0.065
10,CGISTRYHNRES,0.696 ± 0.023
11,CGLLEGGRCRKE,0.7922 ± 0.0071
12,CGLVGVALSEGV,0.65 ± 0.086
13,CGRACWTGEDDV,0.68 ± 0.037
14,CGRGCTRGVNLG,0.689 ± 0.069
15,CGSWAGRAWPGR,0.755 ± 0.014
16,CGVGWSWTWSGW,0.698 ± 0.078
17,CGVYPQLSGGFG,0.687 ± 0.018
18,CGWTSPSLVPTC,0.791 ± 0.045
19,CGYAAGGELLQD,0.705 ± 0.012
20,CHGCSGFSYAPS,0.669 ± 0.039
21,CIALLTPPCIIF,0.72 ± 0.065
22,CIDCGRKDIARL,0.785 ± 0.066
23,CIPHVVPYSTGK,0.697 ± 0.014
24,CITLLDILFRPS,0.684 ± 0.019
25,CKKRSRCGNTIM,0.755 ± 0.15
26,CKMGNQNIRLYV,0.599 ± 0.033

row,Sequence,protein stability index
1,CKPAGEGPTASM,0.678 ± 0.037
2,CKVRSYDDFVLV,0.6231 ± 0.002
3,CLAGLGPADFGM,0.674 ± 0.057
4,CLATVFWHHVKF,0.63 ± 0.058
5,CLAVPFSFRLVW,0.613 ± 0.041
6,CLHSKPSPESRT,0.687 ± 0.041
7,CLISDLRFVNKR,0.69 ± 0.056
8,CLLIRAQRNALW,0.64 ± 0.036
9,CLPCSGWLSWPH,0.664 ± 0.0069
10,CLPLSPPVPHLR,0.738 ± 0.12
11,CLPPSSIVPFIS,0.59 ± 0.024
12,CLREYGGRGGWE,0.706 ± 0.028
13,CLRGFWSQFMRF,0.678 ± 0.032
14,CLRKKYSNTLLM,0.647 ± 0.028
15,CLRTVGIAQSSG,0.7019 ± 0.00094
16,CLSAPFRSLLFL,0.585 ± 0.051
17,CLSATTFSYVFA,0.576 ± 0.0061
18,CLTRFFQPYGSL,0.667 ± 0.059
19,CLTYPSFSLSSS,0.635 ± 0.063
20,CMRVGGWFLFSL,0.661 ± 0.051
21,CNFGLHSCALLY,0.723 ± 0.033
22,CNVGAIVGLVWV,0.6002 ± 0.0019
23,CPGNGVFYSGRG,0.679 ± 0.014
24,CPLEYSEVVLVD,0.6268 ± 0.0022
25,CPLSPLPSSAAP,0.681 ± 0.042
26,CPPGFPRPSSPH,0.689 ± 0.028

row,Sequence,protein stability index
1,CPPTPSPSTLPT,0.663 ± 0.016
2,CPRPHVLPLAYF,0.646 ± 0.014
3,CPRSWWELLAID,0.739 ± 0.045
4,CPSIVCSPTDPM,0.679 ± 0.061
5,CPSRPPALPPPE,0.66835 ± 0.00049
6,CPTLTCPRLPSP,0.684 ± 0.11
7,CPVSWRPLCTVS,0.6177 ± 0.0054
8,CQHPLRPRCLND,0.6724 ± 0.0048
9,CRGAGGRTVING,0.665 ± 0.043
10,CRGRWVAWSMGI,0.7221 ± 0.0019
11,CRMEARHSVLKS,0.554 ± 0.0087
12,CRPVPGGLFVVS,0.669 ± 0.064
13,CRRRWSAPGGSR,0.7176 ± 0.0047
14,CRSGFEPSPHLG,0.657 ± 0.029
15,CSAGLSDRGFCE,0.663 ± 0.023
16,CSCSQYFHLPNV,0.687 ± 0.017
17,CSGCSGSCSVLA,0.646 ± 0.049
18,CSLRDRCAFSFG,0.6982 ± 0.0052
19,CSLSLPAFSAPS,0.669 ± 0.04
20,CSLVIRRRREVG,0.659 ± 0.044
21,CSPGVSGVSSVD,0.685 ± 0.026
22,CSPMFTRQPLPL,0.645 ± 0.027
23,CSRDNRTSRSIL,0.681 ± 0.032
24,CSSRDGLLWRFR,0.731 ± 0.088
25,CSSTGVPGRRHE,0.709 ± 0.013
